Results from patent publication US20250154283A1 (published 2025).

T1: His-StrepTagII-HRV3C-human VWF-CK-HA-tag (human)
T1 construct: it begins with the VWF signal peptide, whose limits were marked only by underlining that is lost in the text, so it was not cut off; The CK domain forms disulfide-linked homodimers (CK dimer); also called recombinant human CK domain; Human CK
T1 chain: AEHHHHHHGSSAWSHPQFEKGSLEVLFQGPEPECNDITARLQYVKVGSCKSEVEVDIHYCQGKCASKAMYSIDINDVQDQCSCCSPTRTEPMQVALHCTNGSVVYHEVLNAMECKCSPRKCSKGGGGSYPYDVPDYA

T2: His-StrepTagII-HRV3C-cyno VWF-CK-HA-tag (cynomolgus monkey)
T2 construct: it begins with the VWF signal peptide, whose limits were marked only by underlining that is lost in the text, so it was not cut off; The CK domain forms disulfide-linked homodimers; also called recombinant cyno CK domain; Cyno CK
T2 chain: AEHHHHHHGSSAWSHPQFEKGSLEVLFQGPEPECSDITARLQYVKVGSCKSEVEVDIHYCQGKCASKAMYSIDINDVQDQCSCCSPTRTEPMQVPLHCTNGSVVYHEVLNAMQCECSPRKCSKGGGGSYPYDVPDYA


Legend:
[1] = molecular target: T1, His-StrepTagII-HRV3C-human VWF-CK-HA-tag; assay: solution-phase equilibrium binding, free antibody by ELISA; apparent Kd; pH 5.5; mean ± SD, n=2
Description: (§1) Following incubation for 30 min at room temperature to establish equilibrium, unbound antibody was quantified by ELISA using the immobilized human CK domain for capture and HRP-conjugated goat anti-human IgG Fc antibody for detection.
(§2) Following a single wash of the plate with 200 μL of wash buffer (TBS containing 0.05% (v/v) Tween-20 and 5 mM CaCl₂), the plate was blocked by incubation with 200 μL blocking buffer (TBS containing 5 mM CaCl₂ and 1% (w/w) BSA) for 1 hour at room temperature. […] Incubation lasted 3 min and was followed by 5-min incubation with 100 μL HRP-conjugated goat anti-human IgG Fc antibody for detection (1 mg/mL stock diluted 1:20,000 in blocking buffer). Before and after addition of a detection antibody, the plate was washed 5 times with 200 μL wash buffer. A chromogenic horseradish peroxidase (HRP) substrate (100 μL) was then added and following color development for 3 min, 100 μL ELISA stop solution were added to quench the reaction. Absorbance was measured at 450 nm with subtraction of the absorbance at 620 nm.
(§3) The standard curve prepared with free antibody was fitted to a Sigmoidal four-parameter logistic (4PL) model.

[2] = molecular target: T2, His-StrepTagII-HRV3C-cyno VWF-CK-HA-tag; assay: as above
Description: as §1, §2, §3

[3] = molecular target: T3, human plasma-derived VWF (human, UniProt P04275 764-2813); assay: solution-phase equilibrium binding, free antibody by ELISA; apparent Kd; pH 7.4; mean ± SD, n=2
T3 construct: multimeric; also called pd-VWF; Human VWF
Description: as §1, §2, §3

[4] = molecular target: T1, His-StrepTagII-HRV3C-human VWF-CK-HA-tag; assay: as above
Description: as §1, §2, §3

[5] = molecular target: T2, His-StrepTagII-HRV3C-cyno VWF-CK-HA-tag; assay: as above
Description: as §1, §2, §3

[6] = molecular target: T4, VWF in human plasma (human, UniProt P04275 764-2813); assay: VWF:FVIIIB enzyme immunoassay; human plasma (5 donors) 17 h 37 °C with 200 nM antibody; FVIII bound to captured VWF relative to untreated plasma; ligand FVIII
T4 construct: Endogenous VWF in donor plasma, not purified; multimeric; also called VWF in plasma; VWF in platelet rich plasma

[7] = molecular target: T4, VWF in human plasma; assay: VWF:FVIIIB enzyme immunoassay; human plasma (5 donors) 17 h 37 °C with 600 nM antibody; FVIII bound to captured VWF relative to untreated plasma; ligand FVIII
[8] = molecular target: T4, VWF in human plasma; assay: collagen type III binding ELISA; human plasma (5 donors) 17 h 37 °C with 600 nM antibody; VWF bound to collagen relative to untreated plasma; ligand collagen type III
Description: Following incubation, collagen binding was determined relative to untreated plasma.

[9] = molecular target: T4, VWF in human plasma; assay: flow cytometry, FITC anti-VWF on platelets; human PRP (2 donors), 0.5 mg/ml ristocetin, 600 nM antibody; relative to the same plasma without antibody; receptor platelet gp1b
Description: PRP was prepared by centrifuging the blood at 250 g for 15 min. […] Sample analysis was performed on a flow cytometer. Using forward (FSC) and sideward (SSC) scatter pattern, a gate was placed on the platelets.

Kd [1]	Kd [2]	Kd [3]	Kd [4]	Kd [5]	VWF:FVIII level (% of control) [6]	VWF:FVIII level (% of control) [7]	Collagen binding (% control) [8]	Platelet binding (% control) [9]	Binder
17.9 nM	26.4 nM	5.7 nM	5.3 nM	10.2 nM	91.1 % of control	93.9 % of control	106 % control	89.7 % control	Lib1_P1_A9 OA (antibody, human IgG4 S228P, kappa, F234A L235A, also called monovalent (one-arm) Lib1_P1_A9) heavy: QVQLVQSGAEVKKPGASVKVSCKVSGDTLSSYGIHWVRQAPGKGLEWMGGSIPSFGTAIYAQKFQGRVTMTEDTSTDTAYMELSSLKSEDTAVYYCTSEGPWLPFFSFDYWGQGTLVTVSSASTKGPSVFPLAPCSRSTSESTAALGCLVKDYFPEPVTVSWNSGALTSGVHTFPAVLQSSGLYSLSSVVTVPSSSLGTKTYTCNVDHKPSNTKVDKRVESKYGPPCPPCPAPEAAGGPSVFLFPPKPKDTLMISRTPEVTCVVVDVSQEDPEVQFNWYVDGVEVHNAKTKPREEQFNSTYRVVSVLTVLHQDWLNGKEYKCKVSNKGLPSSIEKTISKAKGQPREPQVYTLPPSQEEMTKNQVSLSCAVKGFYPSDIAVEWESNGQPENNYKTTPPVLDSDGSFFLVSRLTVDKSRWQEGNVFSCSVMHEALHNHYTQKSLSLSLG ESKYGPPCPPCPAPEAAGGPSVFLFPPKPKDTLMISRTPEVTCVVVDVSQEDPEVQFNWYVDGVEVHNAKTKPREEQFNSTYRVVSVLTVLHQDWLNGKEYKCKVSNKGLPSSIEKTISKAKGQPREPQVYTLPPSQEEMTKNQVSLWCLVKGFYPSDIAVEWESNGQPENNYKTTPPVLDSDGSFFLYSRLTVDKSRWQEGNVFSCSVMHEALHNHYTQKSLSLSLG light: DIQMTQSPSSVSASVGDRVTITCRASQGISRNLAWYQQKPGKAPKLLIYKASSLASGVPSRFSGSGSGTDFTLTISSLQPEDFANYYCQQSFSTPVTFGGGTKVEIKRTVAAPSVFIFPPSDEQLKSGTASVVCLLNNFYPREAKVQWKVDNALQSGNSQESVTEQDSKDSTYSLSSTLTLSKADYEKHKVYACEVTHQGLSSPVTKSFNRGEC
8.2 nM	13 nM	2.7 nM	2.7 nM	3.4 nM	89.7 % of control	88.6 % of control	103 % control	69.2 % control	Lib1_P1_A6 OA (antibody, human IgG4 S228P, kappa, F234A L235A, also called monovalent (one-arm) Lib1_P1_A6) heavy: QVQLVQSGAEVKKPGASVKVSCKVSGSTFSNYAIHWVRQAPGKGLEWMGGIVPLSGTAIYAQKFQGRVTMTEDTSTDTAYMELSSLKSEDTAVYYCARDQGESSGWYAIYYGMDVWGQGTTVTVSSASTKGPSVFPLAPCSRSTSESTAALGCLVKDYFPEPVTVSWNSGALTSGVHTFPAVLQSSGLYSLSSVVTVPSSSLGTKTYTCNVDHKPSNTKVDKRVESKYGPPCPPCPAPEAAGGPSVFLFPPKPKDTLMISRTPEVTCVVVDVSQEDPEVQFNWYVDGVEVHNAKTKPREEQFNSTYRVVSVLTVLHQDWLNGKEYKCKVSNKGLPSSIEKTISKAKGQPREPQVYTLPPSQEEMTKNQVSLSCAVKGFYPSDIAVEWESNGQPENNYKTTPPVLDSDGSFFLVSRLTVDKSRWQEGNVFSCSVMHEALHNHYTQKSLSLSLG ESKYGPPCPPCPAPEAAGGPSVFLFPPKPKDTLMISRTPEVTCVVVDVSQEDPEVQFNWYVDGVEVHNAKTKPREEQFNSTYRVVSVLTVLHQDWLNGKEYKCKVSNKGLPSSIEKTISKAKGQPREPQVYTLPPSQEEMTKNQVSLWCLVKGFYPSDIAVEWESNGQPENNYKTTPPVLDSDGSFFLYSRLTVDKSRWQEGNVFSCSVMHEALHNHYTQKSLSLSLG light: DIQMTQSPSSVSASVGDRVTITCRASQGIGTWLAWYQQKPGKAPKLLIYGSSSRASGVPSRFSGSGSGTDFTLTISSLQPEDFANYYCQQSYGKPTFGGGTKVEIKRTVAAPSVFIFPPSDEQLKSGTASVVCLLNNFYPREAKVQWKVDNALQSGNSQESVTEQDSKDSTYSLSSTLTLSKADYEKHKVYACEVTHQGLSSPVTKSFNRGEC
